The assay concerns the target recombinant C2JX39 (DNA topoisomerase 4 subunit A) (Lactobacillus rhamnosus YQ001). The experiment in a line: ELISA; attachment factors coated at 280.0 pmol/mL in carbonate-bicarbonate buffer overnight at 4 C, blocked with 1.0% BSA; P protein (GI.1 or GII.4) 10.0 ug/mL, 1 h at 37 C; detected with anti-HuNoV monoclonal antibodies; positive when S/N >= 2.0. As to conditions: both partners purified.

B1: GII.4 HuNoV P protein (domain or fragment)
chain: KPFTVPILTVEEMTNSRFPIPLEKLFTGPSGAFVVQPQNGRCTTDGVLLGTTQLSPVNICTFRGDVTHIAGSRNYTMNLASLNWNNYDPTEEIPAPLGTPDFVGKIQGLLTQTTKGDGSTRGHKATVYTGSAPFTPKLGSVQFSTDTENDFETHQNTKFTPVGVIQDGSTTHRNEPQQWVLPSYSGRNVHNVHLAPAVAPTFPGEQLLFFRSTMPGCSGYPNMDLDCLLPQEWVQHFYQEAAPAQSDVALLRFVNPDTGRVLFECKLHKSGYVTVAHTGQHDLVIPPNGYFRFDSWVNQFYTLAPM
As to B1, the S/N ratio worked out at 16.9.

These data come from article PMC12628836, “Lactobacillus rhamnosus YQ001 binds with GII.4 human noroviruses and inhibits viral replication in zebrafish larvae” (Applied and Environmental Microbiology, 2025).
